Data set [1] relates to TTR. As to the kind of experiment: TTR editing in primary cyno hepatocytes treated with LNP formulated Spy Cas9 mRNA (SEQ ID NO: 2) and sgRNAs, 12.5 ng mRNA. The data set is classed as cell-based, cynomolgus monkey. As to conditions: LNP formulated Spy Cas9 mRNA (SEQ ID NO: 2) and cyno matched sgRNA, lysed 72 hours post treatment. Here is the method:
(§1) Primary liver hepatocytes. Primary human liver hepatocytes (PHH) and primary cynomolgus liver hepatocytes (PCH) (Gibco) were cultured per the manufacturer's protocol (Invitrogen, protocol 11.28.2012). In brief, the cells were thawed and resuspended in hepatocyte thawing medium with supplements (Gibco, Cat. CM7000) followed by centrifugation at 100 g for 10 minutes for human and 80 g for 4 minutes for cyno. The supernatant was discarded and the pelleted cells resuspended in hepatocyte plating medium plus supplement pack (Invitrogen, Cat. A1217601 and CM3000). Cells were counted and plated on Bio-coat collagen I coated 96-well plates (ThermoFisher, Cat. 877272) at a density of 33,000 cells/well for human or 60,000 cells/well for cyno (or 65,000 cells/well when assaying effects on TTR protein, described further below). Plated cells were allowed to settle and adhere for 6 or 24 hours in a tissue culture incubator at 37° C. and 5% CO2 atmosphere. After incubation cells were checked for monolayer formation and media was replaced with hepatocyte culture medium with serum-free supplement pack (Invitrogen, Cat. A1217601 and CM4000).
In general, the lipid nanoparticle components were dissolved in 100% ethanol with the lipid component of various molar ratios. The RNA cargos were dissolved in 25 mM citrate, 100 mM NaCl, pH 5.0, resulting in a concentration of RNA cargo of approximately 0.45 mg/mL. The LNPs were formulated with a lipid amine to RNA phosphate (N:P) molar ratio of about 4.5 or about 6, with the ratio of mRNA to gRNA at 1:1 by weight.
The LNPs were formed by microfluidic mixing of the lipid and RNA solutions using a Precision Nanosystems NanoAssemblr™ Benchtop Instrument, according to the manufacturer's protocol. A 2:1 ratio of aqueous to organic solvent was maintained during mixing using differential flow rates. […]
Additional PCR was performed per the manufacturer's protocols (Illumina) to add chemistry for sequencing. […] The reads were aligned to a reference genome (e.g., the human reference genome (hg38), the cynomologus reference genome (mf5), the rat reference genome (rn6), or the mouse reference genome (mm10)) after eliminating those having low quality scores. The resulting files containing the reads were mapped to the reference genome (BAM files), where reads that overlapped the target region of interest were selected and the number of wild type reads versus the number of reads which contain an insertion, substitution, or deletion was calculated.
The editing percentage (e.g., the “editing efficiency” or “percent editing” or “indel frequency”) is defined as the total number of sequence reads with insertions/deletions (“indels”) or substitutions over the total number of sequence reads, including wild type. […]

Data set [2] concerns TTR. As to the kind of experiment: TTR editing dose response (EC50, maximum editing) in primary human hepatocytes treated with LNP formulated U-depleted Spy Cas9 mRNA and sgRNAs. The data set is classed as cell-based. The following applies: LNP with U-depleted Spy Cas9 mRNA and cyno specific sgRNA, 8 point 3-fold dose response starting at 300 ng mRNA, 72 hours. Here is the method: as §1
(§2) For LNPs prepared using the cross-flow technique, the LNPs were formed by impinging jet mixing of the lipid in ethanol with two volumes of RNA solutions and one volume of water. The lipid in ethanol is mixed through a mixing cross with the two volumes of RNA solution. A fourth stream of water is mixed with the outlet stream of the cross through an inline tee. (See WO2016010840 FIG. 2.) The LNPs were held for 1 hour at room temperature, and further diluted with water (approximately 1:1 v/v). Diluted LNPs were concentrated using tangential flow filtration on a flat sheet cartridge (Sartorius, 100 kD MWCO) and then buffer exchanged by diafiltration into 50 mM Tris, 45 mM NaCl, 5% (w/v) sucrose, pH 7.5 (TSS). Alternatively, the final buffer exchange into TSS was completed with PD-10 desalting columns (GE). If required, formulations were concentrated by centrifugation with Amicon 100 kDa centrifugal filters (Millipore). The resulting mixture was then filtered using a 0.2 μm sterile filter. The final LNP was stored at 4° C. or −80° C. until further use.
(§3) Additional PCR was performed per the manufacturer's protocols (Illumina) to add chemistry for sequencing. The amplicons were sequenced on an Illumina MiSeq instrument. The reads were aligned to a reference genome (e.g., the human reference genome (hg38), the cynomologus reference genome (mf5), the rat reference genome (rn6), or the mouse reference genome (mm10)) after eliminating those having low quality scores. The resulting files containing the reads were mapped to the reference genome (BAM files), where reads that overlapped the target region of interest were selected and the number of wild type reads versus the number of reads which contain an insertion, substitution, or deletion was calculated.
(§4) The editing percentage (e.g., the “editing efficiency” or “percent editing” or “indel frequency”) is defined as the total number of sequence reads with insertions/deletions (“indels”) or substitutions over the total number of sequence reads, including wild type.
(§5) Lipid nanoparticle formulations of modified sgRNAs targeting human TTR and the cyno matched sgRNA sequences were tested on primary human hepatocytes and primary cyno hepatocytes in a dose response curve. Primary human and cyno hepatocytes were plated as described in Example 1. Both cell lines were incubated at 37° C., 5% CO2 for 24 hours prior to treatment with LNPs. The LNPs used in the experiments detailed in Tables 20-22 were prepared using the cross-flow procedure described above but purified using PD-10 columns (GE Healthcare Life Sciences) and concentrated using Amicon centrifugal filter units (Millipore Sigma), each containing the specified sgRNA and Cas9 mRNA (SEQ ID NO:1). […] LNPs were incubated in hepatocyte maintenance media containing 6% cyno serum at 37° C., 5% CO2 for 5 minutes. […]

Data set [3] deals with TTR. As to the kind of experiment: TTR editing dose response (EC50, maximum editing) in primary cyno hepatocytes treated with LNP formulated U-depleted Spy Cas9 mRNA and sgRNAs. Type of data set: cell-based, cynomolgus monkey. As for the experimental part: as §1, §2, §3, §4, §5

Strand notation (5' to 3'): a small letter for the sugar, then the base; units joined by * are phosphorothioate-linked, units joined directly phosphodiester-linked; [ ] holds rarer units or linkages, { } end groups; capitals alone tell only the bases. m = 2'-O-methyl; r = 2'-OH (RNA)

The source of these data is patent US20230035659A1, “Compositions and Methods for TTR Gene Editing and Treating ATTR Amyloidosis Comprising a Corticosteroid or Use Thereof” (Intellia Therapeutics, Inc., priority 2019, published 2023).

B1: G000506: TTR Cyno specific sgRNA modified sequence, SEQ ID NO: 118; guide sequence of CR005366 (nucleic acid)
guide: mA*mU*mA*rCrCrArGrUrCrCrArGrCrGrArGrGrCrArGrGrUrUrUrUrArGrAmGmCmUmAmGmAmAmAmUmAmGmCrArArGrUrUrArArArArUrArArGrGrCrUrArGrUrCrCrGrUrUrArUrCrAmAmCmUmUmGmAmAmAmAmAmGmUmGmGmCmAmCmCmGmAmGmUmCmGmGmUmGmCmU*mU*mU*mU
Take B1: the “12.5 ng mRNA, 3.9 nM sgRNA, Avg % Edit” value in data set [1] turned out to be 60.13%. In addition, the “Max Editing” value in data set [2] was 89.49%; in data set [3] (LNP formulated U-depleted Spy Cas9 mRNA and cyno specific sgRNAs), 99.18%; in data set [3] (LNP formulated U-depleted Spy Cas9 mRNA and human specific sgRNAs) it was 89.49%.
